Measured values: article PMC10213058

Target: mouse pendrin (SLC26A4), full length (mouse)
Assay: cryo-EM structure; single-particle cryo-EM of purified pendrin in 0.02% GDN, about 1.7 mg/mL, pH 8.0-8.3; samples in 150 mM NaCl (pendrin-Cl), NaHCO3 (pendrin-HCO3), Cl/HCO3, Cl/I and HCO3/I; symmetric and asymmetric homodimers

stoichiometry N: 2
Substance: mouse pendrin (SLC26A4), full length (natural protein)
